Numbering of substitutions follows the chain as printed.
Experiments:
[1] = target: T1, biotin-labeled active hMMP-9(cat)_FLAG_Avi (human, UniProt P14780 107-449, biotin on the Avi tag (biotin ligase BirA)); test: ELISA, biotinylated target on streptavidin plate, anti-S-tag HRP detection
T1 construct: His tag and propeptide removed; also called active human MMP-9 enzyme active domain
Experimental: (§1) The biotin-labeled pro-hMMP-9(cat)_His6_FLAG_Avi obtained in (2-1-6) or biotin-labeled active hMMP-9(cat)_FLAG_Avi obtained in (2-1-7) was immobilized on a streptavidin coated 96-well plate (Thermo Fisher Scientific). After blocking with 3% BSA, 1 to 1,000 nM of the binding peptides were added, and reacted at room temperature for 1.5 hours. After washing, goat anti-S-Tag HRP conjugated (Bethyl Laboratories, Inc.) was added, and reacted at room temperature for 1 hour. After washing, substrates of ELISA POD substrate A.B.T.S kit (Nacalai Tesque Inc.) were added, and reacted at room temperature.

[2] = target: T2, biotin-labeled pro-hMMP-9(cat)_His6_FLAG_Avi (human, UniProt P14780 20-449, biotin on the Avi tag (biotin ligase BirA)); test: as above
T2 construct: Secretion signal Met1-Ala19 left out; also called pro human MMP-9 enzyme active domain; not shown: His tag (His6 by the construct's name)
Experimental: as §1

[3] = target: active hMMP-9(cat) (human, UniProt P14780 107-449); test: cell-based or functional assay
[4] = target: active hMMP-9(cat)_F110A (human, UniProt P14780 107-449); test: cell-based or functional assay
[5] = target: active hMMP-9(cat)_Y179A (human, UniProt P14780 107-449); test: cell-based or functional assay
[6] = target: active hMMP-9(cat)_L187A (human, UniProt P14780 107-449); test: cell-based or functional assay
[7] = target: active hMMP-9(cat)_F192A (human, UniProt P14780 107-449); test: cell-based or functional assay
[8] = target: active hMMP-9(cat)_Q199G (human, UniProt P14780 107-449); test: cell-based or functional assay
[9] = target: active hMMP-9(cat)_Y393A (human, UniProt P14780 107-449); test: cell-based or functional assay
[10] = target: active hMMP-9(cat)_L397A (human, UniProt P14780 107-449); test: cell-based or functional assay
[11] = target: active hMMP-9(cat)_V398A (human, UniProt P14780 107-449); test: cell-based or functional assay
[12] = target: active hMMP-9(cat)_Y420A (human, UniProt P14780 107-449); test: cell-based or functional assay
[13] = target: active hMMP-9(cat)_M422I (human, UniProt P14780 107-449); test: cell-based or functional assay
[14] = target: active hMMP-9(cat)_Y423A (human, UniProt P14780 107-449); test: cell-based or functional assay
[15] = target: T3, hMMP-9(cat)_E402Q_His6 (human, UniProt P14780 107-449); test: size exclusion chromatography of the mixture
T3 construct: also called human MMP-9 enzyme active domain E402Q mutant; human MMP-9 E402Q mutant; not shown: His tag (His6 by the construct's name)
Experimental: After the reaction, 10 μl of the reaction solution was analyzed by size exclusion chromatography. The chromatographic conditions were as follows.

[16] = target: active hMMP-9(cat)_D185A (human, UniProt P14780 107-449); test: cell-based or functional assay
[17] = target: active hMMP-9(cat)_P193A (human, UniProt P14780 107-449); test: cell-based or functional assay
[18] = target: active hMMP-9(cat)_R424T (human, UniProt P14780 107-449); test: cell-based or functional assay
Chain of active hMMP-9(cat)_R424T (P14780 107-449 R424T): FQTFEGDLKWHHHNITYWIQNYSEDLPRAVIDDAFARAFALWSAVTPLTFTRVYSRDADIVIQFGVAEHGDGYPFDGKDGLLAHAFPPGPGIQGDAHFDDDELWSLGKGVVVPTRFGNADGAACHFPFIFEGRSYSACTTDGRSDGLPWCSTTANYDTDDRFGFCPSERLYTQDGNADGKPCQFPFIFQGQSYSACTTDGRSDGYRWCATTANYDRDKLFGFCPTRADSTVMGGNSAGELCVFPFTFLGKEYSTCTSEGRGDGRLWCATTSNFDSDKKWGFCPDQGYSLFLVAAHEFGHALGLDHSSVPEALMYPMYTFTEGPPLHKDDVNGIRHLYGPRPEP

T2 sequence (P14780 other isoform, or with tags, fused parts or gaps): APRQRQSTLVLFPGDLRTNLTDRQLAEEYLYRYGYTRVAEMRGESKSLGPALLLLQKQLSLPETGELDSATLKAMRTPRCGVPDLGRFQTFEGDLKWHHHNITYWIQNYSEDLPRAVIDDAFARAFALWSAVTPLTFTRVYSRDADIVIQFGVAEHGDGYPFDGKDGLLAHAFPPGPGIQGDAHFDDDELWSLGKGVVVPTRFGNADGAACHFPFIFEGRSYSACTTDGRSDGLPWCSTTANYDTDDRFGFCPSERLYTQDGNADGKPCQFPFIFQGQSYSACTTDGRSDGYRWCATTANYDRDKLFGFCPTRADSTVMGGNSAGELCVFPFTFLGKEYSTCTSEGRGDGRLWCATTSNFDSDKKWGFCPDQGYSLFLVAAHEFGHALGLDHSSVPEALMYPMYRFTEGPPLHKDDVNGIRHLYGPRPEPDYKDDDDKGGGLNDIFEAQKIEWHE
T1 sequence (P14780 other isoform, or with tags, fused parts or gaps): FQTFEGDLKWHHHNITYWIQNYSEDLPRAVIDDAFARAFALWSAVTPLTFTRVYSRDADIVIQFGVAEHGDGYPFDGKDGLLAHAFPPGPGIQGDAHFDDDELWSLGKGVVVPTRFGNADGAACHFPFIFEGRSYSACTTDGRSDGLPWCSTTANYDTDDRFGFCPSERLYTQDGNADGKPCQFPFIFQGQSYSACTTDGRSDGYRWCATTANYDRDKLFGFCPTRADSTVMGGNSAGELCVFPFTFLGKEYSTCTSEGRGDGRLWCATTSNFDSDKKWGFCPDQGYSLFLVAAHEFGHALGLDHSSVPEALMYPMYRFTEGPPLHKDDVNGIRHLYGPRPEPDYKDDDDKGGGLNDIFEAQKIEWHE
Chain of active hMMP-9(cat)_Y393A (P14780 107-449 Y393A): as the sequence (P14780 107-449 R424T) above, with Y287A, T318R counted along it
Chain of active hMMP-9(cat)_Y423A (P14780 107-449 Y423A): as the sequence (P14780 107-449 R424T) above, with Y317A, T318R counted along it
Chain of active hMMP-9(cat)_M422I (P14780 107-449 M422I): as the sequence (P14780 107-449 R424T) above, with M316I, T318R counted along it
Chain of active hMMP-9(cat)_V398A (P14780 107-449 V398A): as the sequence (P14780 107-449 R424T) above, with V292A, T318R counted along it
T3 sequence (P14780 107-449 E402Q): as the sequence (P14780 107-449 R424T) above, with E296Q, T318R counted along it
Chain of active hMMP-9(cat)_Y179A (P14780 107-449 Y179A): as the sequence (P14780 107-449 R424T) above, with Y73A, T318R counted along it
Chain of active hMMP-9(cat) (P14780 107-449): as the sequence (P14780 107-449 R424T) above, with T318R counted along it
Chain of active hMMP-9(cat)_F192A (P14780 107-449 F192A): as the sequence (P14780 107-449 R424T) above, with F86A, T318R counted along it
Chain of active hMMP-9(cat)_L397A (P14780 107-449 L397A): as the sequence (P14780 107-449 R424T) above, with L291A, T318R counted along it
Chain of active hMMP-9(cat)_Y420A (P14780 107-449 Y420A): as the sequence (P14780 107-449 R424T) above, with Y314A, T318R counted along it
Chain of active hMMP-9(cat)_D185A (P14780 107-449 D185A): as the sequence (P14780 107-449 R424T) above, with D79A, T318R counted along it
Chain of active hMMP-9(cat)_Q199G (P14780 107-449 Q199G): as the sequence (P14780 107-449 R424T) above, with Q93G, T318R counted along it
Chain of active hMMP-9(cat)_P193A (P14780 107-449 P193A): as the sequence (P14780 107-449 R424T) above, with P87A, T318R counted along it
Chain of active hMMP-9(cat)_F110A (P14780 107-449 F110A): as the sequence (P14780 107-449 R424T) above, with F4A, T318R counted along it
Chain of active hMMP-9(cat)_L187A (P14780 107-449 L187A): as the sequence (P14780 107-449 R424T) above, with L81A, T318R counted along it

B1: wild type SPINK2 (other)
chain: GSGMKETAAAKFERQHMDSPDLGTDDDDKAMADIGSANSDPQFGLFSKYRTPNCSQYRLPGCPRHFNPVCGSDMSTYANECTLCMKIREGGHNIKIIRNGPCGASAAA
notes: also called WT; human SPINK2
- binding result [1]: no binding (tested: 1 to 1,000 nM)
- binding result [2]: no binding (tested: 1 to 1,000 nM)

B2: active MMP-9-binding peptide M91002 (designed binder)
chain: B1 chain with S55R, Q56T, Y57G, L59G, G61A, P63Q, R64M, H65G, N67Q
notes: SPINK2 mutant as prepared in (1-2): Stag+linker 1 at the N-terminal, C-terminal 6-mer at the C-terminal
- binding result [1]: binds
- binding result [2]: no binding (tested: 1 µM)

B3: active MMP-9-binding peptide M91005 (designed binder)
chain: B1 chain with S55R, Q56K, Y57R, R58G, L59G, G61S, P63Q, R64M, H65S, F66Y
notes: as for B2
- IC50 of inhibition of substrate peptide degradation [3]: 17 nM
- IC50 of enzyme inhibition relative to the wild type [4]: 4 times
- IC50 of enzyme inhibition relative to the wild type [5]: 3.2 times
- IC50 of enzyme inhibition relative to the wild type [6]: 6.7 times
- IC50 of enzyme inhibition relative to the wild type [7]: > 57.8 times
- IC50 of enzyme inhibition relative to the wild type [8]: 2.3 times
- IC50 of enzyme inhibition relative to the wild type [9]: 2.7 times
- IC50 of enzyme inhibition relative to the wild type [10]: 2.2 times
- IC50 of enzyme inhibition relative to the wild type [11]: 2.2 times
- IC50 of enzyme inhibition relative to the wild type [12]: 3.1 times
- IC50 of enzyme inhibition relative to the wild type [13]: 2.6 times
- IC50 of enzyme inhibition relative to the wild type [14]: 13.2 times
- binding result [15]: no binding (tested: 75 µM peptide with 25 µM target)
- binding result [2]: no binding (tested: 1 µM)

B4: active MMP-9-binding peptide M91012 (designed binder)
chain: B1 chain with S55R, Q56V, Y57R, R58G, L59G, G61S, P63Q, R64M, H65S
notes: as for B2
- binding result [1]: binds
- binding result [2]: no binding (tested: 1 µM)

B5: active MMP-9-binding peptide M91011 (designed binder)
chain: GSGMKETAAAKFERQHMDSPDLGTDDDDKAMADIGSANSDPQFGLFSKYRTPNCMMYKYAQCSHKSQPVCGSDMSTYANECTLCMKIREGGHNIKIIRNGPCGASAAA
notes: as for B2
- IC50 of inhibition of substrate peptide degradation [3]: 17 nM
- IC50 of enzyme inhibition relative to the wild type [5]: 4.9 times
- IC50 of enzyme inhibition relative to the wild type [16]: 19 times
- IC50 of enzyme inhibition relative to the wild type [7]: 5 times
- IC50 of enzyme inhibition relative to the wild type [17]: 6.5 times
- IC50 of enzyme inhibition relative to the wild type [9]: > 57.6 times
- IC50 of enzyme inhibition relative to the wild type [10]: 3.5 times
- IC50 of enzyme inhibition relative to the wild type [11]: 4.8 times
- IC50 of enzyme inhibition relative to the wild type [13]: 2.6 times
- IC50 of enzyme inhibition relative to the wild type [14]: > 20 times
- IC50 of enzyme inhibition relative to the wild type [18]: 2.7 times
- binding result [15]: no binding (tested: 75 µM peptide with 25 µM target)
- binding result [2]: no binding (tested: 1 µM)

B6: active MMP-9-binding peptide M91001 (designed binder)
chain: GSGMKETAAAKFERQHMDSPDLGTDDDDKAMADIGSANSDPQFGLFSKYRTPNCQRGIGPSCQMSYKPVCGSDMSTYANECTLCMKIREGGHNIKIIRNGPCGASAAA
notes: as for B2
- binding result [1]: binds
- binding result [2]: no binding (tested: 1 µM)

B7: active MMP-9-binding peptide M91004 (designed binder)
chain: B6 chain with Q55R, R56Q, G57R, I58K, S65A, Y66F, K67Q
notes: as for B2
- binding result [1]: binds
- binding result [2]: no binding (tested: 1 µM)

B8: active MMP-9-binding peptide M91014 (designed binder)
chain: B5 chain with M55V, S66Y, Q67K
notes: as for B2
- binding result [1]: binds
- binding result [2]: no binding (tested: 1 µM)

B9: active MMP-9-binding peptide M91010 (designed binder)
chain: B6 chain with Q55R, R56K, G57V, I58G, G59E, S61A, Y66F, K67N
notes: as for B2
- binding result [1]: binds
- binding result [2]: no binding (tested: 1 µM)

Reference: US20200231654A1 (Daiichi Sankyo, published 2020)
